# From patent US20080113343A1
# Molecular target: human sPLA2-IIA (Type IIA secreted phospholipase A2) (human) (UniProt P14555)
# Test: cell-based or functional assay
# Chain of human sPLA2-IIA (Type IIA secreted phospholipase A2) (human) (P14555 21-144 limits assumed): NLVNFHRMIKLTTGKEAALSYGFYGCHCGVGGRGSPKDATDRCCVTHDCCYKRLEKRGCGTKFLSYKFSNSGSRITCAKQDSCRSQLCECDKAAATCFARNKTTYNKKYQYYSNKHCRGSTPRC
substance,measurement,value
c(2NapA)LS(2NapA)R (cyclic (2Nap)LS(2Nap)R) (peptide),"smallest effective dose, proliferation of unstimulated LNCaP and PC-3 cells (MTS assay, doses 1-100 nM)",1 nM
